Laboratory results from patent publication US20240168030A1, “DIRECT FLUORESCENT GLYCAN LABELING” (BIO-TECHNE CORPORATION, priority 2019, published 2024).

Tests used:
Type in all cases: biochemical
[1] = Enzymatic synthesis of Le^x and sLe^x by glycan gel electrophoresis, substrate G0
Protocol: (§1) FIG. 21A. Schematic view of the enzymatic steps for Le^X and sLe^X synthesis on the antibody glycan G0. The glycan short names follow that of FIG. 10. FIG. 21B Kinetic comparison of galactosylation on G0 by B4GalT1, sialyation on G2 by ST3Gal4 and ST6Gal1, and fucosylation on A2[3] by FUT7. The reaction time for B4GalT1 was 10 minutes. The reaction time for ST3Gal4, FUT7 and ST6Gal1 was 5 hours. In each case, the labeling enzyme was subject to a 3-fold serial dilution starting from 1 μg each of B4GalT1, FUT7 and ST6Gal1, and 3 μg ST3Gal4. FIG. 21C. […] Reaction time for both cases was 20 minutes. […] FIG. 21D. […] Reaction time for both cases was 20 minutes.
(§2) For a typical labeling reaction, 1 μg to 5 μg target protein was mixed with 0.2 nmol fluorophore-conjugated GDP-fucose and 0.2 μg of a fucosyltransferase in 30μL 25 mM Tris pH 7.5, 10 mM MnCl2. The mixture was incubated at 37° C. for 30 minutes. […] To release labeled glycans from a glycoprotein, the sample was first denatured by heating at 95° C. for two minutes in the presence of 0.5% SDS and 80 mM β-mercaptoethanol and then renatured with 1% Triton X-100, and finally treated with PNGase F at 10:1 mass ratio at 37° C. for 20 minutes. To release glycans from antibody, a sample was directly treated with Endo S at 10:1 mass ratio at 37° C. for 20 minutes. All samples were separated by sodium dodecyl sulfate—polyacrylamide gel electrophoresis (SDS-PAGE) at […]. For separating labeled glycoproteins and antibodies, 4-20% gradient SDS gel was used. For separating labeled free glycans, 15% or 17% gel was used. After separation, all gels were imaged using a FluorChem M imager (ProteinSimple, Bio-Techne, Minneapolis, MN). For glycoproteins samples, the gel was also imaged with traditional methods such as silver staining or trichloroethanol (TCE) staining.
(§3) For sLe^x synthesis, G0 was first converted to G2 by B4GalT1, then converted to A2[3] by ST3Gal4, and finally converted to A2[3]F2 (carrier of sLe^x) by FUT7 (FIG. 21A). […]

[2] = Le^a synthesis from FUT8-labeled G0 (G0f) quantified with response curve; conditions: for Completion of reaction in Le^a synthesis: FIG. 22B
Protocol: FIG. 22A-FIG. 22C show quantification of Le^a and its intermediate products. […] Lane 1 is labeled G0 (G0f) and lane 2 is labeled G2 (G2f). Lane 3 to 5 contain the intermediate reactions of converting G0f to the final Le^a carrying glycan A1 G1[3]F1f with the indicated enzymes. Lane 6 to lane 13 is a 2-fold serial dilution of G0f starting from 25 ng (19 pmol). The exposure time is 240 ms. The mass inputs of the serial dilution and all the band intensities were listed below the picture. FIG. 22C. The response curve of the serial dilution in FIG. 22B. The slope of the line represents the signal to mass ratio of G0f, which allows the quantification of the bands from lanes 1 to 5.
To evaluate the quantitative aspects of the glycan electrophoresis described in this article, a series of enzymatic reactions towards Le^a synthesis were run along with a 2-fold serial dilution of the FUT8-labeled antibody glycan G0 (G0f) (FIG. 22). Le^a was synthesized from G0f sequentially via the steps of galactosylation by B3GalT2, sialylation by ST3Gal3 and fucosylation by FUT3 (FIG. 22A). Major intermediate products of Le^a synthesis including G1[3]f, A1G1[3]f and A1 G1[3]F1f were observed (FIG. 22B). When the band intensities of the serial dilution of G0f in FIG. 22B were plotted against the masses of the glycan, a response curve with the linear coefficient of 0.9998 was obtained, with the slope of the curve representing the signal to mass ratio (FIG. 22C). The masses of the intermediates of Le^a synthesis were then calculated using the signal to mass ratio. […] In addition, the results also indicate that the sensitivity of the current method for glycan detection is below picomole level.

[3] = Enzymatic synthesis of sLe^x by glycan gel electrophoresis, substrate A2[3]; conditions: for Activity based on reaction completion: completed product sLe^x
Protocol: as §1, §2, §3

[4] = tested on: fetal bovine fetuin and asialofetuin; assay: Labeling of fetuin and asialofetuin by fucosyltransferases with GDP-Cy5-Fuc; conditions: GDP-Cy5-Fuc donor, FIG. 9A
Protocol: FIG. 9A-FIG. 9B show exemplary results of probing substrate glycans of various fucosyltransferases on fetuin and asialofetuin. FIG. 9A. Probing substrate glycans of fucosyltransferases with guanosine 5′-diphosphate activated Cy5 conjugated fucose (GDP-Cy5-Fuc). […] FUT9 labeled itself (indicated by an arrow in the gel). FIG. 9B. Tolerance of Alexa-Fluor®555 (555), Alexa-Fluor®488 (488), and Cy5 by the indicated fucosyltransferases. All reactions were incubated at 37° C. for 30 minutes and then separated on SDS-PAGE and imaged with silver staining (upper panels) and fluorescent imager (lower panels). M, molecular marker.
For a typical labeling reaction, 1 μg to 5 μg target protein was mixed with 0.2 nmol GDP-f-Fuc and 0.2 μg of a fucosyltransferase in 30 μL buffer of 25 mM Tris pH 7.5, 10 mM MnCl2. The mixture was incubated at 37° C. for 30 minutes. The reaction was then separated by sodium dodecyl sulfate—polyacrylamide gel electrophoresis (SDS-PAGE) and the gel was directly imaged using a fluorescent imager FluorChem M ProteinSimple, Bio-Techne, Minneapolis, MN), followed by imaging with traditional protein imaging methods such as silver staining or trichloroethanol (TCE) staining.
The labeled samples were then separated on SDS-PAGE, followed by traditional protein gel imaging and fluorescent imaging.

[5] = Enzymatic synthesis of Le^x and sLe^x by glycan gel electrophoresis, substrate G2; conditions: substrate G2, completed product Le^x
Protocol: as §1, §2
For sLe^x synthesis, G0 was first converted to G2 by B4GalT1, then converted to A2[3] by ST3Gal4, and finally converted to A2[3]F2 (carrier of sLe^x) by FUT7 (FIG. 21A). During these steps, different amounts of enzymes, and multiple reaction times were applied to reveal the intermediate products.
Intermediate products are signs for the progress of each enzymatic step.

[6] = band masses from signal to mass ratio, FIG. 22

In the case of β-1,4-Galactosyltransferase 1 [B4GalT1], the “Time for the complete conversion of G0 to G2” value ([1]; FIG. 21B) is reported as 10 min, the “Activity based on reaction completion” value ([1]; substrate G0, completed product G2) is reported as 2.3 pmol/min/µg and the Relative activity ([1]; substrate G0, product G2, normalized to FUT6 on sLe^x synthesis) is reported as 17.

B1: B3GalT2: galactosyltransferase used for galactosylation in Le^a synthesis (protein, UniProt O43825 1-422, looked up)
Beta-1,3-galactosyltransferase …: MLQWRRRHCCFAKMTWNAKRSLFRTHLIGVLSLVFLFAMFLFFNHHDWLPGRAGFKENPVTYTFRGFRSTKSETNHSSLRNIWKETVPQTLRPQTATNSNNTDLSPQGVTGLENTLSANGSIYNEKGTGHPNSYHFKYIINEPEKCQEKSPFLILLIAAEPGQIEARRAIRQTWGNESLAPGIQITRIFLLGLSIKLNGYLQRAILEESRQYHDIIQQEYLDTYYNLTIKTLMGMNWVATYCPHIPYVMKTDSDMFVNTEYLINKLLKPDLPPRHNYFTGYLMRGYAPNRNKDSKWYMPPDLYPSERYPVFCSGTGYVFSGDLAEKIFKVSLGIRRLHLEDVYVGICLAKLRIDPVPPPNEFVFNHWRVSYSSCKYSHLITSHQFQPSELIKYWNHLQQNKHNACANAAKEKAGRYRHRKLH
In the case of B1, the “Share of G0f converted to G1[3]f” value [2, 6] is reported as 53% and the “Share of G0f converted to G2[3]f” value [2, 6] is reported as 9%.

B2: ST3Gal3: recombinant human sialyltransferase that generates α2,3-sialylated N-glycans (protein, UniProt Q11203 1-375, looked up)
CMP-N-acetylneuraminate-beta-1 …: MGLLVFVRNLLLALCLFLVLGFLYYSAWKLHLLQWEEDSNSVVLSFDSAGQTLGSEYDRLGFLLNLDSKLPAELATKYANFSEGACKPGYASALMTAIFPRFSKPAPMFLDDSFRKWARIREFVPPFGIKGQDNLIKAILSVTKEYRLTPALDSLRCRRCIIVGNGGVLANKSLGSRIDDYDIVVRLNSAPVKGFEKDVGSKTTLRITYPEGAMQRPEQYERDSLFVLAGFKWQDFKWLKYIVYKERVSASDGFWKSVATRVPKEPPEIRILNPYFIQEAAFTLIGLPFNNGLMGRGNIPTLGSVAVTMALHGCDEVAVAGFGYDMSTPNAPLHYYETVRMAAIKESWTHNIQREKEFLRKLVKARVITDLSSGI
With B2 the “Completion of reaction in Le^a synthesis” value [2] was “almost completed”.

B3: FUT7: α-3 fucosyltransferase strictly active on sialyllactosamine (protein, UniProt Q11130 1-342, looked up)
Alpha-(1,3)-fucosyltransferase …: MNNAGHGPTRRLRGLGVLAGVALLAALWLLWLLGSAPRGTPAPQPTITILVWHWPFTDQPPELPSDTCTRYGIARCHLSANRSLLASADAVVFHHRELQTRRSHLPLAQRPRGQPWVWASMESPSHTHGLSHLRGIFNWVLSYRRDSDIFVPYGRLEPHWGPSPPLPAKSRVAAWVVSNFQERQLRARLYRQLAPHLRVDVFGRANGRPLCASCLVPTVAQYRFYLSFENSQHRDYITEKFWRNALVAGTVPVVLGPPRATYEAFVPADAFVHVDDFGSARELAAFLTGMNESRYQRFFAWRDRLRVRLFTDWRERFCAICDRYPHLPRSQVYEDLEGWFQA
In the case of B3, the “Activity based on reaction completion” value [3] is reported as 0.38 pmol/min/µg, the Relative activity ([3]; product sLe^x, normalized to FUT6 on sLe^x synthesis) is reported as 2.8 and the “Which of fetuin and asialofetuin the fucosyltransferase labeled” value [4] is reported as “labeled fetuin”.

B4: FUT3: fucosyltransferase used for fucosylation in Le^a synthesis (protein, UniProt P21217 1-361, looked up)
3-galactosyl-N-acetylglucosami …: MDPLGAAKPQWPWRRCLAALLFQLLVAVCFFSYLRVSRDDATGSPRAPSGSSRQDTTPTRPTLLILLRTWPFHIPVALSRCSEMVPGTADCHITADRKVYPQADMVIVHHWDIMSNPKSRLPPSPRPQGQRWIWFNLEPPPNCQHLEALDRYFNLTMSYRSDSDIFTPYGWLEPWSGQPAHPPLNLSAKTELVAWAVSNWKPDSARVRYYQSLQAHLKVDVYGRSHKPLPKGTMMETLSRYKFYLAFENSLHPDYITEKLWRNALEAWAVPVVLGPSRSNYERFLPPDAFIHVDDFQSPKDLARYLQELDKDHARYLSYFRWRETLRPRSFSWALDFCKACWKLQQESRYQTVRSIAAWFT
For B4, the “Completion of reaction in Le^a synthesis” value [2] was “almost completed”.

B5: FUT6: recombinant α-3 fucosyltransferase active on lactosamine and sialyllactosamine (protein, UniProt P51993 1-359, looked up)
4-galactosyl-N-acetylglucosami …: MDPLGPAKPQWSWRCCLTTLLFQLLMAVCFFSYLRVSQDDPTVYPNGSRFPDSTGTPAHSIPLILLWTWPFNKPIALPRCSEMVPGTADCNITADRKVYPQADAVIVHHREVMYNPSAQLPRSPRRQGQRWIWFSMESPSHCWQLKAMDGYFNLTMSYRSDSDIFTPYGWLEPWSGQPAHPPLNLSAKTELVAWAVSNWGPNSARVRYYQSLQAHLKVDVYGRSHKPLPQGTMMETLSRYKFYLAFENSLHPDYITEKLWRNALEAWAVPVVLGPSRSNYERFLPPDAFIHVDDFQSPKDLARYLQELDKDHARYLSYFRWRETLRPRSFSWALAFCKACWKLQEESRYQTRGIAAWFT
With B5 the “Activity based on reaction completion” value [5] was 2.3 pmol/min/µg, the “Activity based on reaction completion” value [3] was 13.5 pmol/min/µg and the “Which of fetuin and asialofetuin the fucosyltransferase labeled” value [4] was “labeled both fetuin and asialofetuin”.
